Reference: WO2022025129A1 (dated 2022)

Legend:
[1] = molecular target: HBs antigen of genotype C HBV (infectious virus) (Hepatitis B virus (HBV) genotype C); experiment: cell-based or functional assay
[2] = molecular target: T1, human insulin (Fujifilm Wako Pure Chemical) (human, UniProt P01308 25-54; P01308 90-110); experiment: ELISA, human insulin coated on the plate, anti-human IgG-HRP
T1 construct: also called human-derived component
T1 sequence (P01308 25-54 limits assumed, chain 1 of 2): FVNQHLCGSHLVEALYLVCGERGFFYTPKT
T1 sequence (P01308 90-110 limits assumed, chain 2 of 2): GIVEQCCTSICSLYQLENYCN

Row | Binder | neutralization activity against commercially available HBIG (reduction of HBe antigen, PXB cells) [1] | binding result [2]
1 | 3B6 antibody (recombinant human anti-HBs monoclonal antibody) (antibody, V domains shown, also called 3B6 clone) VH: EVQLVESGGGVVQPGKSLRVSCAASGFSFSNYGMHWVRQAPGKGLEWVSVIWRDGSHQYYADSVKGRFTVSRDNARDTLFLQMDGLRAEDTAVYYCAREDPAIVLPVLDHWGRGTLVTVSS VL: AAAMTQSPVSLSASVGDRVTITCRASQRINSYLNWYQQKPGKAPKLLIYGASNLPSGVPSRFSGSGSGTYFTLTISSLQPEDLATYYCQQGYSTPLLSFGPGTKVEIKR | ≥ 10 fold against commercially available HBIG | no binding (tested: 特異抗原であるHBsへの結合が飽和する濃度の10倍以上の抗体濃度)
2 | 5A4 antibody (recombinant human anti-HBs monoclonal antibody) (antibody, V domains shown, also called 5A4 clone) VH: QVQLQESGPGLVKPSDTLSLTCTVSGGSISGHYWSWIRRLPGGGLEWIGYIHYSGITNYNPSLKSRVTMSVDMSKNQFSLRLRSVTATDTAVYYCARGDATYGYWGQGAPVTVSS VL: AAAMTQSPFTLPVTPGEPASISCRSSQSLLHRNGYNYVNWYLRKPGQSPQLLISLGSDRASGVPDRFRGSGAGTDFTLKISRVEAEDVGVYYCMQALRTPWTFGQGTKVEIKR | ≥ 10 fold against commercially available HBIG | no binding (tested: 特異抗原であるHBsへの結合が飽和する濃度の10倍以上の抗体濃度)
3 | M2-11 antibody (recombinant human anti-HBs monoclonal antibody) (antibody, V domains shown, also called M2-11 clone) VH: QVQLVESGGGLVKPGESLRLSCAASGFMFSGHSMVWVRQAPGKGLEWVSFIGSTGEFISYADSVRGRFTISRDNAKNSLYLQMNSLRADDTAVYYCAREQGTRGRYYYYGLDVWGQGTTVTVSS VL: AAAMTQTPPSLSLSPGESATLSCRASQSVSTYLAWYQQKPGQAPRLLIYDAFNRATGIPARFSGSGSGTDFTLTISGLEPEDFAVYYCQQRGHWPLTFGGGTKVEIKR | ≥ 10 fold against commercially available HBIG | no binding (tested: 特異抗原であるHBsへの結合が飽和する濃度の10倍以上の抗体濃度)
